# Reference: US10400249B2, “HPPD variants and methods of use” (priority 2014, dated 2019)
# Test system: maize T0 events
# Test: greenhouse spray test of maize T0 events for tolerance to Cmpd. 4
# Assay type: in vivo
# Settings: Cmpd. 4 at 100 g AI/ha; for number of maize T0 events in herbicide tolerance class 0 (41%-100% damaged leaf area) / number of maize T0 events in herbicide tolerance class 1 (16%-41% damaged leaf area) / number of maize T0 events in herbicide tolerance class 2 (6%-15% damaged leaf area) / number of maize T0 events in herbicide tolerance class 3 (0%-5% damaged leaf area): six days after application
# Excerpt: Constructing the plant expression cassette for stable expression in the maize plant and maize transformation are well known in the art and in this particular example the methods were described and used from the PCT patent publication WO2014/043435 and WO2008/100353. The polynucleotide sequences encoding the HPPD variants in this application have been stacked with a DNA sequence encoding an EPSPS protein variant to confer tolerance to herbicides, which target the EPSPS. The EPSPS gene was isolated and mutated from Arthrobacter globiformis (WO2008/100353) and joined in-frame to a transit peptide sequence to guide translocation of the translated protein to the chloroplast.
# The corresponding HPPD variants were cloned with the same promoter, chloroplast transit peptide, and terminator sequence as described for the EPSPS gene expression cassette. The coding sequences for both genes have been codon optimized for maize expression. For the maize transformation ears are best collected 8-12 days after pollination. Embryos were isolated from the ears, and those embryos 0.8-1.5 mm in size were preferred for use in transformation. Embryos were plated scutellum side-up on a suitable incubation media, and incubated overnight at 25° C. in the dark.
# However, it was not necessary per se to incubate the embryos overnight. Embryos are contacted with an Agrobacterium strain containing the appropriate vectors having a nucleotide sequence of the present invention for Ti plasmid mediated transfer for about 5-10 min, and then plated onto co-cultivation media for about 3 days (25° C. in the dark). After co-cultivation, explants were transferred to recovery period media for about five days (at 25° C. in the dark). Explants were incubated in selection media with glyphosate for up to eight weeks, depending on the nature and characteristics of the particular selection utilized. After the selection period, the resulting callus were transferred to embryo maturation media, until the formation of mature somatic embryos is observed. The resulting mature somatic embryos were then placed under low light, and the process of regeneration was initiated as known in the art. The resulting shoots were allowed to root on rooting media, and the resulting plants were transferred to nursery pots and propagated as transgenic plants. Plants were routinely analyzed for the expression and presence of the transgenes using the ELISA protein detection method. Only plants recovering in the selection media and having a detectable HPPD transgene protein expression were used for the herbicide tolerance analysis.
# Regenerated T0 events from tissue culture were transplanted into two inch square pots with synthetic soil (Fafard® Mix) and controlled-released fertilizer (Haifa Multicote™; polymer-coated controlled-release fertilizer, NPK Pro 18-6-12+ Micronutrients) and cultivated in the greenhouse (GH) under supplementary high pressure sodium light for 12 days at a maximum of 30° C. during the day and a minimum of 22° C. at night. Fully recovered plants were transferred into five inch square pots filled with synthetic soil and control released fertilizer under the same environmental conditions. After seven days the T0 plants have been sprayed with 2-chloro-3-(methylsulfanyl)-N-(1-methyl-1H-tetrazol-5-yl)-4-(trifluoromethyl)benzamide (Cmpd. 4); at agronomic relevant concentration of 100 g AI/ha (with “g AI/ha” meaning “gram of active ingredient per hectare”) prepared from a WP20 (wettable powder 20%) formulation supplemented with esterified vegetable oil mixture (Hasten™ spray adjuvants, 0.578% v/v) and ammonium sulphate (AMS, 0.97% w/v). The herbicide treatment was conducted in a DeVries Tracker Sprayer system with standard application protocols, which are well known in the art. As a spray control T0 events have been sprayed with the adjuvant mixture lacking the herbicide. […]
Molecule,"share of tested maize events with good to high tolerance, 15% or less bleached leaf area",share of tested maize events with less than 5% or no visual leaf damage [%],number of maize T0 events in herbicide tolerance class 0 (41%-100% damaged leaf area),number of maize T0 events in herbicide tolerance class 1 (16%-41% damaged leaf area),number of maize T0 events in herbicide tolerance class 2 (6%-15% damaged leaf area),number of maize T0 events in herbicide tolerance class 3 (0%-5% damaged leaf area)
"FLP136: PfHPPD variant P215L, E335P, G336F (protein, HPPD variant - FLP136, PfHPPD variant P215L, E335P, G336F) MADLYENPMGLMGFEFIEFASPTPGTLEPIFEIMGFTKVATHRSKNVHLYRQGEINLILNNEPNSIASYFAAEHGPSVCGMAFRVKDSQKAYNRALELGAQPIHIDTGPMELNLPAIKGIGGAPLYLIDRFGEGSSIYDIDFVYLEGVERNPVGAGLKVIDHLTHNVYRGRMVYWANFYEKLFNFREARYFDIKGEYTGLTSKAMSAPDGMIRILLNEESSKGAGQIEEFLMQFNGEGIQHVAFLTDDLVKTWDALKKIGMRFMTAPPDTYYEMLEGRLPDHGEPVDQLQARGILLDGSSVEGDKRLLLQIFSETLMGPVFFEFIQRKGDDGFGPFNFKALFESIERDQVRRGVLTAD",Approximately 40%,~15,13,37,21,13
"FLP202: PfHPPD variant P215L, E335P, G336F, A340E (protein, HPPD variant - FLP202, PfHPPD variant P215L, E335P, G336F, A340E) MADLYENPMGLMGFEFIEFASPTPGTLEPIFEIMGFTKVATHRSKNVHLYRQGEINLILNNEPNSIASYFAAEHGPSVCGMAFRVKDSQKAYNRALELGAQPIHIDTGPMELNLPAIKGIGGAPLYLIDRFGEGSSIYDIDFVYLEGVERNPVGAGLKVIDHLTHNVYRGRMVYWANFYEKLFNFREARYFDIKGEYTGLTSKAMSAPDGMIRILLNEESSKGAGQIEEFLMQFNGEGIQHVAFLTDDLVKTWDALKKIGMRFMTAPPDTYYEMLEGRLPDHGEPVDQLQARGILLDGSSVEGDKRLLLQIFSETLMGPVFFEFIQRKGDDGFGPFNFKELFESIERDQVRRGVLTAD",More than 30%,~13,12,49,16,12
